Source: PMC3034952 (Enzyme Research, 2011)
Residue numbers refer to the chain shown, from its start.

Key:
[1] = target: T1, Arabidopsis thaliana mitochondrial pyruvate dehydrogenase E1α subunit (AtPDC E1α), wild type, H6-tagged (Arabidopsis thaliana, UniProt P52901 18-389); test: pull-down; H6-E1α and FLAG-E1β coexpressed in E. coli; soluble fraction on a HiTrap chelating column charged with NiSO4 (immobilized metal affinity chromatography); E1α detected with monoclonal anti-E1α, E1β with anti-FLAG by immunoblot; conditions: partners not purified
T1 sequence (looked up): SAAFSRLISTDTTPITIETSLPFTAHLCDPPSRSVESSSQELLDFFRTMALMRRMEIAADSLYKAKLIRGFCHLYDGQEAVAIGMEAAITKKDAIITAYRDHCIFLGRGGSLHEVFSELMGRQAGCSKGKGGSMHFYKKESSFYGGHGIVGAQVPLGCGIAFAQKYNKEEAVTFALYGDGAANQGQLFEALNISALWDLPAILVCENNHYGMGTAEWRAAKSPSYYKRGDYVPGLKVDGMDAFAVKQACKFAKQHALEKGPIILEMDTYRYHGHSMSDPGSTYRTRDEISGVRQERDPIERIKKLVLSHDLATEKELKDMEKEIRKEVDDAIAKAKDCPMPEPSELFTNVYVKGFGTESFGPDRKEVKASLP

[2] = target: T2, AtPDC E1α D295L mutant, H6-tagged (Arabidopsis thaliana, UniProt P52901 18-389, D295L); test: SEC; purified recombinant AtPDC E1 on a Superose 12 column in 50 mM TES-NaOH, pH 7.4, 50 mM NaCl, 0.1 mM TPP, 0.2 mM MgCl2; fractions analysed by SDS-PAGE and immunoblotting; conditions: both partners purified
T2 sequence (looked up): T1 sequence (looked up) with D278L

[3] = target: T3, AtPDC E1α D295A mutant, H6-tagged (Arabidopsis thaliana, UniProt P52901 18-389, D295A); test: as above; conditions: both partners purified
T3 sequence (looked up): T1 sequence (looked up) with D278A

[4] = target: T4, AtPDC E1α D295N mutant, H6-tagged (Arabidopsis thaliana, UniProt P52901 18-389, D295N); test: as above; conditions: both partners purified
T4 sequence (looked up): T1 sequence (looked up) with D278N

[5] = target: T5, AtPDC E1α S292D/S298A double mutant, H6-tagged (Arabidopsis thaliana, UniProt P52901 18-389, S292D | S298A); test: as above; conditions: both partners purified
T5 sequence (looked up): T1 sequence (looked up) with S275D, S281A

Measured: binding result

B1: Arabidopsis thaliana mitochondrial pyruvate dehydrogenase E1β subunit (AtPDC E1β), FLAG-tagged (enzyme, UniProt Q38799 30-363, looked up)
chain: AAGAKEMTVRDALNSAIDEEMSADPKVFVMGEEVGQYQGAYKITKGLLEKYGPERVYDTPITEAGFTGIGVGAAYAGLKPVVEFMTFNFSMQAIDHIINSAAKSNYMSAGQINVPIVFRGPNGAAAGVGAQHSQCYAAWYASVPGLKVLAPYSAEDARGLLKAAIRDPDPVVFLENELLYGESFPISEEALDSSFCLPIGKAKIEREGKDVTIVTFSKMVGFALKAAEKLAEEGISAEVINLRSIRPLDRATINASVRKTSRLVTVEEGFPQHGVCAEICASVVEESFSYLDAPVERIAGADVPMPYAANLERLALPQIEDIVRASKRACYRSK
binds: all assays above
